Assay results published in patent US20120156130A1 (published 2012).

B1: U1-59, fully human anti-HER3 monoclonal antibody (antibody, V domains shown)
VH: QVQLQQWGAGLLKPSETLSLTCAVYGGSFSGYYWSWIRQPPGKGLEWIGEINHSGSTNYNPSLKSRVTISVETSKNQFSLKLSSVTAADTAVYYCARDKWTWYFDLWGRGTLVTVSS
VL: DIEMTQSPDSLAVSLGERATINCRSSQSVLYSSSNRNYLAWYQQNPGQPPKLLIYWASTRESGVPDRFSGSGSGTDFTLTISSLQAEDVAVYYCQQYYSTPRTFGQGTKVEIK
B2: U1-53, anti-HER3 antibody (antibody, V domains shown)
VH: EVQLVESGGGLVQPGGSLRLSCAASGFTFSIYSMNWVRQAPGKGLEWVSYISSSSSTIYYADSVKGRFTISRDNAKNSLYLQMNSLRDEDTAVYYCARDRGDFDAFDIWGQGTMVTVSS
VL: DIQMTQSPSSLSASVGDRVTITCQASQDITNYLNWYQQKPGKAPKLLIYDASNLETGVPSRFSGSGSGTDFTFTISSLQPEDIATYNCQQCENFPITFGQGTRLEIK
B3: U1-49, anti-HER3 antibody (antibody, V domains shown)
VH: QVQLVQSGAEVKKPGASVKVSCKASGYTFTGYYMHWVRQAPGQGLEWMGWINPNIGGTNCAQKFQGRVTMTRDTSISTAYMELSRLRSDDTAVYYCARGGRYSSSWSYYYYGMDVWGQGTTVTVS
VL: DILMTQTPLSLSVTPGQPASISCKSSQSLLLSDGGTYLYWYLQKPGQPPQLLIYEVSNRFSGVPDRFSGSGSGTDFTLKISRVEAEDVGVYYCMQSMQLPITFGQGTRLEIK

The binders below were run against HER3 on DU-145 and PC-3 prostate cancer cells (UniProt P21860 20-1342, limits assumed) (assay: cell-based or functional assay).
HER3 on DU-145 and PC-3 prostate cancer cells, sequence (P21860 20-1342 limits assumed): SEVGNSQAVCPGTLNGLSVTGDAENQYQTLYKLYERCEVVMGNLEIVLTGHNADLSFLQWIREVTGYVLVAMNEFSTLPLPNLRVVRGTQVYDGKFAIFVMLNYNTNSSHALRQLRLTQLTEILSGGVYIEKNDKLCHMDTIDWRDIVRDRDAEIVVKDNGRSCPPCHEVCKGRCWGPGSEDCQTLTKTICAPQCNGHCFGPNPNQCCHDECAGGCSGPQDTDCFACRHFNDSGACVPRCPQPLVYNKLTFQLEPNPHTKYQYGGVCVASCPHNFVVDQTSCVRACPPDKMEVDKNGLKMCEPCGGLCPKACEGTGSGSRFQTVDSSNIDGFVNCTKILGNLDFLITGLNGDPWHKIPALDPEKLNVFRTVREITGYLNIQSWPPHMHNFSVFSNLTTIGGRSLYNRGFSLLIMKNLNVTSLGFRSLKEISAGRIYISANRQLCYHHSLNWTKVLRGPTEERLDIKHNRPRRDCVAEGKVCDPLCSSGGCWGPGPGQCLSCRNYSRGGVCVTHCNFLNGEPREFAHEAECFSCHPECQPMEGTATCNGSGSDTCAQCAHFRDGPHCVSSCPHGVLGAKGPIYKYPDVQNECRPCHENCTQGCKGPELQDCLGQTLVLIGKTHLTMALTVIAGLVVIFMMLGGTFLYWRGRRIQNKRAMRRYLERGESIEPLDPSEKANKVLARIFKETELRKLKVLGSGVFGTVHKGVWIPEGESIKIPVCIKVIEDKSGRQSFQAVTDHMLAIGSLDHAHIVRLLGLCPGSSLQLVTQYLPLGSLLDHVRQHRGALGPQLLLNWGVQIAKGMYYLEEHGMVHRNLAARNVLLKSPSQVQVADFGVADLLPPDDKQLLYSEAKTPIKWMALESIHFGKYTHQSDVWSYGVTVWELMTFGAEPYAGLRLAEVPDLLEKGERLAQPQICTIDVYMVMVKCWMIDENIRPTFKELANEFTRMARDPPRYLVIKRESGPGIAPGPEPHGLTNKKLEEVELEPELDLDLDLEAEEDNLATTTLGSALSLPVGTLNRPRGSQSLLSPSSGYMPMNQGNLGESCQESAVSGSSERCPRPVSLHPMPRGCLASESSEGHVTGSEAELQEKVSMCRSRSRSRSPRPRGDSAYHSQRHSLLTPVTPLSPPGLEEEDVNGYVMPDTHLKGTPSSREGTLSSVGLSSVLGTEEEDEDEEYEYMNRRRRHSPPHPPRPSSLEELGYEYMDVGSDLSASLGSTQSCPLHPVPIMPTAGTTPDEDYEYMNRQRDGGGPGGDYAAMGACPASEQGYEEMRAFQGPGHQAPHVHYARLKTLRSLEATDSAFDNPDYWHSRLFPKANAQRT

inhibition in colony formation (anchorage independent growth of PC-3 cells, soft agar)	Binder
78%	B1
78%	B2
52%	B3
